Results from the supplement of paper PMC9170038.

Test system: MS2 coat protein
Assay: apparent KD of MS2 coat protein; designed switch direction (-1 OFF switch, 1 ON switch): -1; higher = weaker reporter binding
How it was run: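 Designed RNA switches with common flanks were made on Illumina chips by stalled E. coli RNA polymerase. Titration with SNAP-549-labelled MS2 coat protein doubled from 0.7 or 1.5 nM up to 3 µM. Apparent KD is each design's median over clusters after curve-fitting normalised fluorescence.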

[1] = Eterna round: R95, input ligand: FMN 200 uM
[2] = Eterna round: R95, input ligand: microRNA oligo, concentration not stated
[3] = Eterna round: R95, input ligand: none
[4] = input ligand: microRNA oligo, concentration not stated

| Sequence | apparent KD of MS2 coat protein [2] [nM] | apparent KD of MS2 coat protein (input ligand: FMN 200 uM) [nM] | apparent KD of MS2 coat protein (input ligand: none) [nM] | also measured |
| --- | --- | --- | --- | --- |
| AGUACUGACACGUUGGUGUUAGUACAAUAAGCUUGUGUUACAUGAGGAUCACCCAUGUCCUCAUAAGCUCGUCUUAU [salish99_TOv2_r2_095] (puzzle: Sensor v3, turn-off variant 2) | 38.4 | – | – | apparent KD of MS2 coat protein [1]: 117 nM; apparent KD of MS2 coat protein [3]: 138 nM |
| UCAACGCAAGGAUAUACUUGCGGUGAUGUUCGAAUUCUUCUACUUGAGGAUCACCCAAGUAGAAGGUGCGGUGA [jl-ex2.4.64 ViennaUCT mod] (Eterna round: R97, puzzle: Exclusion 2) | – | 14 | 13.1 | – |
| CAGUACUGAGGAUAUACAUGAGGAUCACCCAUGUUCCAAGGCUAGGAUACUAGCAAAGGUAGAAGGCAGUACUG [Mat - Exclusion 3 - Eli Mod - D26] (Eterna round: R97, puzzle: Exclusion 3) | – | 150 | 17.6 | – |
| GUGUGGCCUGUAGGAUAUGGUUCCGUUUCGGUUCCAGAAGGACACGAGGAUACAUGAGGAUCACCCAUGUGCUCGUCACUGUGC [salish99_ExNG1_r04_404] (Eterna round: R96, puzzle: Exclusion NG 1) | – | 13.2 | 18.2 | apparent KD of MS2 coat protein [4]: 11.5 nM |
| GGUCCGUGUGUGAGGAUAUGCUGGUCCUUGGAUCAGCAGAAGGCACAUGAGGAUCACCCAUGUGGUGUCGGACC [Mat - Exclusion 4 - Eli Mod - D33] (Eterna round: R97, puzzle: Brourd's mod of Exclusion 4) | – | 24.6 | 361 | – |
| UAUUAUCAAGUAAGAUCCUACAUGAGGAUCACCCAUGUGCUCGUCUUAUAAGGUACUGUGACGAAAGUCACGGUACC [Sensor 3, v1 - 74] (puzzle: Sensor v3, turn-off variant 1) | 332 | – | – | apparent KD of MS2 coat protein [1]: 31.3 nM; apparent KD of MS2 coat protein [3]: 33.8 nM |
| CAGCCCUGAGGAUAUCCCUCCUUGUACAUGAGGAUCACCCAUGUUCUCCUCUGGGCUUUGGGAGAAGGCAGAUCUC [Megrez-6.9] (Eterna round: R97, puzzle: Exclusion 5) | – | 41.1 | 46.5 | – |
| AAUAACAAGUAAGGUCCUAACAUGAGGAUCACCCAUGUGCUCGUCUUAUAAAGUACUAUCACGAAAGUGAUAGUACA [Sensor 3, v1 - 52] (puzzle: Sensor v3, turn-off variant 1) | 414 | – | – | apparent KD of MS2 coat protein [1]: 52.5 nM; apparent KD of MS2 coat protein [3]: 52.1 nM |
| AGAUCACAUGAGGAUCACCCAUGUCAGGAUAUCGUCACUGGAGCUUCGGCUCCAGUGACGAGAAGGGAUAAUUA [E1/4-A1] (Eterna round: R97, puzzle: Exclusion 1) | – | 124 | 55 | – |
| CCAGCGUAUGUGAGGAUAUGCUGGUCCUUGGAUCAGCAGAAGGCACAUGAGGAUCACCCAUGUGAUAACGUUGG [JL bmx4 3.39] (puzzle: Brourd's mod of Exclusion 4) | 46.6 | – | – | – |
| AAGAUGUGAGGAUAUCUAUUGAAGCGCGGUUCCCGGCAGAGAGAGAAGGCACAUGAGGAUCACCCAUGUAUAGC [Eternabot (L1) Solution 53] (Eterna round: R97, puzzle: Exclusion 4) | – | 56.5 | 20.6 | – |
| AAGAAACAUGAGGAUCACCCAUGUGAGGAUAUGACCAAGAAAAGAAAAGAAAGAAGAUUCAGAAGGCACAAAGG [salish99-ex1_r3_060] (puzzle: Exclusion 1) | 29.9 | – | – | apparent KD of MS2 coat protein [1]: 49.7 nM; apparent KD of MS2 coat protein [3]: 40.7 nM |
| ACAAGCUUUUUGCUCGUCUACAUGAGGAUCACCCAUGUAGUGAGAUAGUGGUGAAGAUAGAAUGAGCGUAGUAGGUA [JR_SV3TOV1_Sub070] (puzzle: Sensor v3, turn-off variant 1) | 34.1 | – | – | apparent KD of MS2 coat protein [1]: 14.5 nM; apparent KD of MS2 coat protein [3]: 10.2 nM |
| CAGUACUGAGGAUAUACAUGAGGAUCACCCAUGUGAUUCAGUGCACGCGUACGUGUACGUAGAAGGCAGUACUG [JL 3.27 m2] (Eterna round: R97, puzzle: Exclusion 3) | – | 761 | 49 | – |
| CUCAUGUGAGGAUAUAGUGCGUCUUCUAUUAUUAUUGAGUACUAGAAGGCACAUGAGGAUCACCCAUGUAGCAC [Ex4 - 3 - 45] (Eterna round: R96, puzzle: Exclusion 4) | – | – | 57.6 | apparent KD of MS2 coat protein [4]: 29.2 nM |
| CACCGUUACAGAGGAUAUCUUACAUGAGGAUCACCCAUGUAAUAAAUGAGAAUUUCGGAUGUAUGAGAGAAGGCUGGAAUCGGC [Ostricism 38 - Jieux - Exclusion NG 2] (Eterna round: R96, puzzle: Exclusion NG 2) | – | – | – | apparent KD of MS2 coat protein [4]: 16.3 nM |
| AUGCUCCGUGUAGGAUAUCGCCGCACCACUCGGCGAGAAGGACAUGAGGAUCACCCAUGUAUGUUAUUAUCACGUGUGGCGCGC [Design 43] (Eterna round: R96, puzzle: Exclusion NG 1) | – | 15.1 | 15.9 | apparent KD of MS2 coat protein [4]: 13 nM |
| GAUCAACAUGAGGAUCACCCAUGUCAGGAUAUCUAUCAAGUGAGCCUAUCACAAUUUGGGAGAAGGGACCUAAU [Eternabot (L2) Solution 51] (Eterna round: R97, puzzle: Exclusion 1) | – | 35.1 | 35.8 | – |

| Sequence | apparent KD of MS2 coat protein [2] [nM] | apparent KD of MS2 coat protein (input ligand: FMN 200 uM) [nM] | apparent KD of MS2 coat protein (input ligand: none) [nM] | also measured |
| --- | --- | --- | --- | --- |
| GUGGUACAUGAGGAUCACCCAUGUUAGGAUAUCGCGUGAGGUUUUACUUCCGCACACACGAGAAGGGACGUCUU (puzzle: Exclusion 1) | 27.7 | – | – | – |
| UUUUUGUCAGGAUAUGAUUAGAUCUACUUUUGUAGAUCUAAUCAGAAGGGACAUGAGGAUCACCCAUGUAGUUU [Ex4 - 3 - 11] (puzzle: Exclusion 4) | 35.7 | – | – | – |
| GCUCGUUUUGUCAGGAUAUUGAGUCAGCUUAAGCUCGAGAAGGGACAUGAGGAUCACCCAUGUACCGCACAAUU [BmEX4 B.29] (Eterna round: R97, puzzle: Brourd's mod of Exclusion 4) | – | 16.3 | 11.1 | – |
| AUAUUACAUGAGGAUCACCCAUGUGAGGAUAUGGAGCGAGACUGUCCUGUCGCGUACACCAGAAGGCGCGGGUG [1st #52] (Eterna round: R97, puzzle: Exclusion 1) | – | 183 | 118 | – |
| GCCUCACAUGAGGAUCACCCAUGUCAGGAUAUCUCGUGCGCAGUAAUUAUCUGGCUAAAGAGAAGGGACAUUAA [Bedile] (puzzle: Exclusion 1) | 46.6 | – | – | – |
| UUUUUGUGAGGAUAUCAGUAGUAAAUAAAUAAAAUAACUACUGAGAAGGCACAUGAGGAUCACCCAUGUUCUUU [Mat - Exclusion 4 - Mod of Salish - D67] (puzzle: Exclusion 4) | 17.1 | – | – | – |
| CUGAACCCGGUAGGAUAUAUUGUGGGCAAGCAUGGAACGACAUGAGGAUCACCCAUGUAAUUUAGGUAGAAGGGCCGAGAGAUU [Excl-NG2-LRO11] (Eterna round: R96, puzzle: Exclusion NG 2) | – | 70.7 | 67.3 | apparent KD of MS2 coat protein [4]: 66.3 nM |
| CACAUCAAAGGAUAUCUGGACCAAAACAUGAGGAUCACCCAUGUAUGAACAUGGCUCGACGGAGAAGGUUGGCUUC [Eternabot (L1) Solution 51] (Eterna round: R97, puzzle: Exclusion 5) | – | 86.2 | 79.3 | – |
| CCCGUGUAAGGAUAUGACAAUGGUAUCUUCGGAUACCAUUGUCAGAAGGUACAUGAGGAUCACCCAUGUAACAC [Ex4-3: 14] (puzzle: Exclusion 4) | 28 | – | – | – |
| AAUACAAGCAAGAUCCUAAACAUGAGGAUCACCCAUGUGCUCGUCUUAUAAAGUACUAUCACGAAAGUGAUAGUACA [Sensor 3, v1 - 63] (puzzle: Sensor v3, turn-off variant 1) | 438 | – | – | apparent KD of MS2 coat protein [1]: 213 nM; apparent KD of MS2 coat protein [3]: 234 nM |
| AGUAGAUCUACGCUUGCGUGGAUCUGCAAUGCAAGUGUAACAUGAGGAUCACCCAUGUCCUCAUUUGCUCGUCUUAU [JL turnoff v2 99.03] (puzzle: Sensor v3, turn-off variant 2) | 275 | – | – | apparent KD of MS2 coat protein [1]: 46.8 nM; apparent KD of MS2 coat protein [3]: 48.8 nM |
| AAACAGGGAGGAUAUACAUAGAUCGUCUAACCUAAUUGGUCACAUGAGGAUCACCCAUGUAGAAGGCCCUUAGG [Tiisdixe] (puzzle: Exclusion 2) | 22.2 | – | – | – |
| AGUAUGCGGCAGGAUAUCCAUCCGCGGUAAGGUGGAGAAGGGCUGACAUGAGGAUCACCCAUGUGCGUCCUGUA [salish99_ex6_r4_028] (Eterna round: R97, puzzle: Exclusion 6) | – | 31.9 | 19.9 | – |
| AGUGUGUGGCAGGAUAUGCAAUUUAUAGGUGAAGCAGAAGGGUCUACAUGAGGAUCACCCAUGUGUGCGGUUGA [Ex6 #20] (Eterna round: R97, puzzle: Exclusion 6) | – | 600 | 188 | – |
| AAGAGUGCAGGAUAUACUUGGUAGGGCGGGUGGAUGGUUUGACAUGAGGAUCACCCAUGUAGAAGGGCAGAGAG [JR_Exclu2_Sub054] (puzzle: Exclusion 2) | 31.4 | – | – | – |
| AAUUAACAUGUAGGAUAUCUGCACGAUUAGUGCAGAGAAGGACAUGAGGAUCACCCAUGUAUAGCGACUUCGGUCGCAAUAAUU [ENG1/2-B1] (Eterna round: R96, puzzle: Exclusion NG 1) | – | 161 | 80.6 | apparent KD of MS2 coat protein [4]: 69.5 nM |
| GGUUUGGGAGGAUAUGGUUUUAAUAACAUGAGGAUCACCCAUGUAAAUAGAUCCUCAAGGCCAGAAGGCUCGGGCC [-24.9, -24.02 kcal, A 29%] (Eterna round: R97, puzzle: Exclusion 5) | – | 508 | 143 | – |
